Consider four molecules from article PMC3025356, “Mechanism of the Ca^2+-Dependent Interaction between S100A4 and Tail Fragments of Nonmuscle Myosin Heavy Chain IIA” (Journal of Molecular Biology, 2011).

Where only a bound is given, the exact number is not on record here.

The chains are these.
B1: M32 peptide (A1907-G1938 of human nonmuscle myosin heavy chain IIA) (peptide, UniProt P35579-1 1907-1938, looked up)
peptide: Ac-ADAMNREVSSLKNKLRRGDLPFVVPRRMARKG-NH2
notes: nonmuscle myosin heavy chain IIA (NM-MHC IIA), human, residues A1907-G1938; source: synthetic peptide, bought: Peptide 2.0, Inc
B2: M32 myosin peptide (NM-MHC IIA A1907-G1938) (peptide, UniProt P35579-1 1907-1938, looked up)
peptide: Ac-ADAMNREVSSLKNKLRRGDLPFVVPRRMARKG-NH2
notes: as for B1
B3: S100A4 (wild type, full-length) (natural protein)
chain: not shown
notes: S100A4, wild type, called full-length in the NMR experiment with M111; The tag and the vector are not described; also called Mts1; metastasin; source: E. coli BL21(DE3), purified (Ni-NTA, Superdex 75)
B4: M200, C-terminal fragment of human NM-MHC IIA (residues Q1761-E1960) (domain or fragment)
chain: QINTDLNLERSHAQKNENARQQLERQNKELKVKLQEMEGTVKSKYKASITALEAKIAQLEEQLDNETKERQAACKQVRRTEKKLKDVLLQVDDERRNAEQYKDQADKASTRLKQLKRQLEEAEEEAQRANASRRKLQRELEDATETADAMNREISSLKNKLRRGDLPFVVPRRMARKGAGDGSDEEVDGKADGAEAKPAE
modifications: Parallel coiled-coil dimer. N-terminal … tag omitted. The paper prints V1913I, but by its own numbering (D1908-R1923, G1938, G1940, D1941) 1913 is E and the only adjacent Val is V1914, so …

Common to all, as to details: both partners purified
One assay deals with T1, S100A4 (wild type) (UniProt P26447 1-101).
T1 construct: S100A4, wild type; predominantly a dimer under the conditions of the kinetic analysis; Concentrations are stated per monomer chain; only the Ni-NTA column is told; also called Mts1; metastasin; source: E. coli BL21(DE3), purified (Ni-NTA, Superdex 75 gel filtration)
T1 sequence (P26447 whole entry, one chain of several): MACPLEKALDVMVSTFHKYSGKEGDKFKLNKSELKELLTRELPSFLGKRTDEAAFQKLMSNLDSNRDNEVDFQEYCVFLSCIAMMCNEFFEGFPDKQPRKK
As to the kind of experiment: stopped-flow Quin-2 fluorescence (Ca2+ dissociation rate constant against [M32]); 10 uM S100A4 with Ca2+ premixed with M32 (0-50 uM), mixed with 100 uM Quin-2; kobs from single exponentials fitted against [M32] to a quadratic binding equation; apparent; legend says conditions as for Fig. 2c (taken as Fig. 5c: 100 mM NaCl, 10 mM Hepes, 100 uM Ca2+, pH 7.5, 20 C).

Assay [1] addresses B3. As to the kind of experiment: stopped-flow Quin-2 fluorescence (Ca2+ dissociation); S100A4 + Ca2+ premixed with peptide or fragment, mixed with 100 μM Quin-2; 100 mM NaCl, 10 mM Hepes, 100 μM Ca2+, pH 7.5, 20 °C (M16^N also in 20 mM NaCl, 20 mM Tris, 1 mM DTT); apparent.
The target in assay [2] is B3. As to the kind of experiment: fluorescence polarisation; competition: displacement of F-M16^N (5 μM) from S100A4 (5 μM) by increasing M32 or M16^N, with Ca2+; fit to a competitive single-site model with Kd of F-M16^N fixed at 2 μM.
The target in assay [3] is B3. As to the kind of experiment: not stated; K0 of Scheme 1: binding in the absence of Ca2+; the experiment behind the limit is not told.
Assay [4] has as its target B3. In words: fluorescence polarisation; competition: displacement of F-M16^N (5 μM) from S100A4 (5 μM) by increasing M32 or M16^N, with Ca2+; fit to a competitive single-site model with Kd of F-M16^N fixed at 2 μM. This is another data set of the same source.
For assay [5], the target named is B4. In words: turbidity; apparent absorbance at 300 nm, manual mixing; 5 μM M200 filaments in 100 mM NaCl, 10 mM Hepes, 0.1 mM Ca2+, pH 7.5, 20 °C; S100A4 added, then EGTA, then Ca2+.
Assay [6] has as its target B3. In words: turbidity; Ca2+ dependence of the turbidity assay of M200 with S100A4; details in Supplementary Data.
Assay [7] concerns the target B3. In words: stopped-flow Quin-2 fluorescence (Ca2+ dissociation); S100A4 + Ca2+ premixed with peptide or fragment, mixed with 100 μM Quin-2; 100 mM NaCl, 10 mM Hepes, 100 μM Ca2+, pH 7.5, 20 °C (M16^N also in 20 mM NaCl, 20 mM Tris, 1 mM DTT); apparent. This is another data set of the same source.
Assay [8] has as its target B3. In words: turbidity; as a12 in the presence of 250 μM M32 or 250 μM M16^N (competition for S100A4).

B1: in the assay with S100A4 (wild type), the Kd is 440 nM.
For the molecule B2, the Kd in assay [1] is 400 nM; in [3], > 100000 nM; in assay [4] it was 3000 nM. In addition, the “KD (model in which one M32 spans two S100A4 monomers)” value in [2] is 1500 nM.
Regarding B3, the “stoichiometry N” value in assay [5] was 2 S100A4 monomer per M200 polypeptide chain.
In the case of B4, the Kd in assay [6] was ≤ 3 nM; in assay [3] it was > 100000 nM; in assay [8], ~1 nM. Besides, the koff in [7] was < 0.3 s⁻¹.
